{
  "source": "patent US20240166745A1",
  "about": "(Eli Lilly, published 2024)",
  "key": {"Human LAG-3 ECD-His": {"biological_target": "T1, Human LAG-3 ECD-His (human, UniProt P18627 23-449)", "T1 construct": "Soluble analyte in SPR; the entry includes linker and His tag; also called human LAG-3-His", "T1 sequence": "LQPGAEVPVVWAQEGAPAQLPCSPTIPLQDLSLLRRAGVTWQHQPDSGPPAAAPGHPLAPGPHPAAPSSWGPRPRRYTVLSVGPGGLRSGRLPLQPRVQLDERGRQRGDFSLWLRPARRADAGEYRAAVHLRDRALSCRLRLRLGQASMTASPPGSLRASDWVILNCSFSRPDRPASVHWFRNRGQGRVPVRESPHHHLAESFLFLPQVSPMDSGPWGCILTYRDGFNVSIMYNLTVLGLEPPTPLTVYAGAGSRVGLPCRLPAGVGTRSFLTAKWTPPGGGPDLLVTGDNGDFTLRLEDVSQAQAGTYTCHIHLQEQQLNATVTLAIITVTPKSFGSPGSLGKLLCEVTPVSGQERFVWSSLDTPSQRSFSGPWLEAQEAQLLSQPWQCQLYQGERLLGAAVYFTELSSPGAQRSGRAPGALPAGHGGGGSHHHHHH", "assay": "SPR (Biacore T200), antibody captured on PrismA chip, ECD as analyte, 37° C.", "experimental": "(§1) A Biacore® T200 (Cytiva, Marlborough, MA) was used to measure the binding kinetics and affinities of the LAG-3 antibody to the LAG-3 soluble extracellular domain (ECD) and the bispecific antibody to soluble LAG-3-ECD and PD-1-ECD (human: Sino Biologicals, Cat #10377-H08H; cynomolgus: Sino Biologicals, Cat #90311-C08H) by surface plasmon resonance. Samples were diluted in HBS-EP+ (10 mM Hepes, 150 mM NaCl, 3 mM EDTA, 0.05% Tween-20, pH 7.6) (Teknova Cat #H8022) with 5 g/L of BSA (Jackson ImmunoResearch Cat #001-000-161) running buffer. PrismA Series S Sensor chip (Cat #29650263) is purchased from Cytiva.\n(§2) Binding was evaluated using multi-cycle kinetics by an antibody capture method. Each cycle was performed at either 37° C. or 25° C. at a flow rate of 10 μL/min for antibody capture to the PrismA chip and 100 μL/min for analyte association (with 120 sec contact time) and dissociation (900 sec). Each cycle consisted of the following steps: injection of bispecific antibody at 1 μg/mL in HBS-EP+ targeting Rmax values of 125 RU (LAG-3 arm), 294 RU (PD-1 arm) and 63 RU (LAG-3 antibody) on flow cell, injection of analyte in HBS-EP+(concentration range of 62.5 nM to 0.25 nM by two-fold serial dilution for both human PD-1-ECD-His (SEQ ID NO: 40) and human LAG-3-His (SEQ ID NO: 42) followed by 900-second dissociation phase, and regeneration using 10 μL of 10 mM glycine hydrochloride, pH 1.5 over a 60-second contact time utilizing a 10 μL/min flow rate. All analyte concentrations were determined utilizing monomeric molecular weight (MW) values. Association rates (kₒₙ) and dissociation rates (koff) for LAG-3-ECD and PD-1-ECD were evaluated using double referencing by flow-cell one reference subtraction in addition to 0 nM blank subtraction and fit to “1:1 (Langmuir) binding” model in the BIAevaluation software version 4.1. The dissociation constant (KD) was calculated from the binding kinetics according to the relationship KD=Koff/Kₒₙ. Stoichiometry=[RUₘₐₓ/RUcaptured]/[MWanalyte/MWantibody] where MWAntibodyA is 150 kDa. Values are reported as mean±standard deviation."}, "Cynomolgus LAG-3-ECD": {"biological_target": "T2, Cynomolgus LAG-3-ECD (cynomolgus)", "T2 construct": "as printed it starts with the N-terminal leader (MWEAQ...) and ends with a His tag; also called Cynomolgus LAG-3 ECD-His", "T2 chain": "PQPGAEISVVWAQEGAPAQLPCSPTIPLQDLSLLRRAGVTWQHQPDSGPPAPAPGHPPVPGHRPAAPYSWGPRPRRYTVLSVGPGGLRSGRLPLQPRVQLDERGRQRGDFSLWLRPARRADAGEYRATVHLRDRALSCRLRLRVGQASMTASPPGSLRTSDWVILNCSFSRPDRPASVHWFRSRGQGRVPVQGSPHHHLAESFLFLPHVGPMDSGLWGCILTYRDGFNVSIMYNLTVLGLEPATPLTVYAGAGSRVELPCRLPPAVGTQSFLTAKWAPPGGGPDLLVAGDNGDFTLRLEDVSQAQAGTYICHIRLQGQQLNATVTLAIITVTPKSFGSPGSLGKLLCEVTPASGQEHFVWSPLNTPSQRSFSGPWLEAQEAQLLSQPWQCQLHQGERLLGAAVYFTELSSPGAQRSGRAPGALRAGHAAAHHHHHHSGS", "assay": "SPR (Biacore T200), antibody captured on PrismA chip, ECD as analyte, 37° C.", "experimental": "as §1, §2"}, "[1]": {"biological_target": "T3, cell membrane-expressed human LAG-3 (human, UniProt P18627 23-525)", "T3 construct": "also called hLAG-3; CD223", "T3 sequence": "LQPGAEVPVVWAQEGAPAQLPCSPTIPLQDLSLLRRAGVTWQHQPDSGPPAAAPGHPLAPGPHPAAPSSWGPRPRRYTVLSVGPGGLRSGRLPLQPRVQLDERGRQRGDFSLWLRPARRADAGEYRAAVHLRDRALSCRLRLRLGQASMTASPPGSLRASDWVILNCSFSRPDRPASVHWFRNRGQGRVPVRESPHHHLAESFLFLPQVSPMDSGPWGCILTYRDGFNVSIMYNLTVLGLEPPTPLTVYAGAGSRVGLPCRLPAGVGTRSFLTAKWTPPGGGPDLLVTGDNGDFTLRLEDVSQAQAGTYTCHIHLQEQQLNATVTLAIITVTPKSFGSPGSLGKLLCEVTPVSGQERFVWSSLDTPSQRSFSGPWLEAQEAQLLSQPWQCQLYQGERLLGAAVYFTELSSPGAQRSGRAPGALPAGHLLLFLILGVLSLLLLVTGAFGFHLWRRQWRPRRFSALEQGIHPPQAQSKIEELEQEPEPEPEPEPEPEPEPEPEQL", "assay": "flow cytometry, labeled antibody on anti-CD3 activated human PBMC, CD4 T cells, percent of cells bound (mean +/- SEM, n=3)", "experimental": "(§3) Cells were incubated with 10-12 point, 3-fold serial dilutions of the respective labeled antibody (Invitrogen #S20026, Invitrogen #C20029), starting at 30 ug/mL, in PBS+2% FCS for 30 minutes at 4° C. and containing the following: CD4 eBioscience #12-0047-42 or Biolegend #344634; CD8 eBioscience #25-0088-42; CD3 eBioscience 56-0038-82 for human cells and BD #557917 for cyno cells; CD33 eBioscience 45-0338-42 for human cells; Live/Dead eBioscience #65-0865-18. After washing thoroughly, cells were processed on a BD Fortessa or Fortessa X20 cytometer, and data were analyzed with Flowjo software (BD Biosciences). Percent of cells bound by the respective antibody is quantified and graphed with Prism (Graphpad, San Diego, CA)."}, "[2]": {"biological_target": "T3, cell membrane-expressed human LAG-3", "assay": "flow cytometry, labeled antibody on anti-CD3 activated human PBMC, CD8 T cells, percent of cells bound (mean +/- SEM, n=3)", "experimental": "as §3"}, "[3]": {"biological_target": "T4, cell surface cynomolgus monkey LAG-3 (cynomolgus)", "T4 construct": "whole, on cells", "assay": "flow cytometry, labeled antibody on anti-CD3 activated cynomolgus PBMC, CD4 T cells, percent of cells bound (mean +/- SEM, n=3)", "experimental": "as §3"}, "[4]": {"biological_target": "T4, cell surface cynomolgus monkey LAG-3", "assay": "flow cytometry, labeled antibody on anti-CD3 activated cynomolgus PBMC, CD8 T cells, percent of cells bound (mean +/- SEM, n=3)", "experimental": "as §3"}},
  "data": [
    {"binder": "Antibody E (antibody, V domains shown, Monospecific LAG-3 antibody; also called human LAG-3 Antibody E) VH: not shown VL: DIVMTQTPLSLPVTPGEPASISCRSSQSLLDSAEGSTYLDWFLRKPGDSPQLLIYTLSYRASGVPDRFSGSGSGTDFTLKISRVEAEDVGVYYCMQRVEFPYTFGQGTKVEIKR", "values": [
      {"measurement": "Kd", "setting": "Human LAG-3 ECD-His", "value": 1, "unit": "nM"},
      {"measurement": "koff", "setting": "Human LAG-3 ECD-His", "value": 0.16, "unit": "s⁻¹"},
      {"measurement": "kon", "setting": "Human LAG-3 ECD-His", "value": "1.5e+08", "unit": "M⁻¹ s⁻¹"},
      {"measurement": "Kd", "setting": "Cynomolgus LAG-3-ECD", "value": 0.038, "unit": "nM"},
      {"measurement": "koff", "setting": "Cynomolgus LAG-3-ECD", "value": 0.0042, "unit": "s⁻¹"},
      {"measurement": "kon", "setting": "Cynomolgus LAG-3-ECD", "value": "1.1e+08", "unit": "M⁻¹ s⁻¹"},
      {"measurement": "EC50", "setting": "[1]", "value": 8.7, "unit": "ng/mL"},
      {"measurement": "EC50", "setting": "[2]", "value": 3.4, "unit": "ng/mL"},
      {"measurement": "EC50", "setting": "[3]", "value": 10.5, "unit": "ng/mL"},
      {"measurement": "EC50", "setting": "[4]", "value": 6.5, "unit": "ng/mL"}
    ]}
  ]
}
